Measurements as given in the DeepSol protein solubility set.

Assay: soluble on expression in E. coli; label from the status in PepcDB or PDB records

Sequence | soluble on expression in E. coli
MGSDKIHHHHHHMEQHQVWAYQTKTHSVTLNSVDIPALAADDILVQNQAIGINPVDWKFIKANPINWSNGHVPGVDGAGVIVKVGAKVDSKMLGRRVAYHTSLKRHGSFAEFTVLNTDRVMTLPDNLSFERAAALPCPLLTAWQAFEKIPLTKQREVLIVGFGAVNNLLTQMLNNAGYVVDLVSASLSQALAAKRGVRHLYREPSQVTQKYFAIFDAVNSQNAAALVPSLKANGHIICIQDRIPAPIDPAFTRTISYHEIALGALHDFGDRQDWQILMQQGEALLTLIAQGKMEIAAPDIFRFEQMIEALDHSEQTKLKTVLTLNE | not soluble
MIPIEIDSGSGFCFGVVNAIRHAEKQLEKSSDKLYCLGDIVHNTLEVERLGKKGLETIDYDAFSRLRGAKVLLRAHGEPPEIYRMAGENGVTIIDATCPVVLRLQNKIKSRYEATRSLGAQVVIYGKRGHAEVNGLVGQTEGTAIVIESEEELDKIDYTRPVILFSQTTKSLEGFGQIIDSISTRMQPGVTFEHHDTICRQVANRIPHIGAFATAHELVFFVAGEKSSNGKVLFGHCLAANPRSIFISSPEVIVPDMLVPLPASIGICGATSTPRWQMEEVASHIKALLLEHHHHHH | soluble
MDEEGASVVITIKNEAKNIQKLLDSLFNNDYEHFEVVVVDDMSNDGTEGIVKKYDKVKYIRTRCSRGEGRNIGAMNSSFENILFTDGDAIVSNGWIGGMVSVLNNGFEIAIGKTVYTGKKRYIQDRVKIYFNGIEITAPSVNLAYKKRAFFSLGGFDKRFVTAEDIDLNLRAAMSGFKFGFCNECVVYAKVRDSFISFLKQAFWNGYGRAQLEEKHPGMLKKTDIRLGHNFYDFMHMSAGAAGYLLYKLR | soluble
MEIAFLLNGETRRVRIEDPTQSLLELLRAEGLTGTKEGCNEGDCGACTVMIRDAAGSRAVNACLMMLPQIAGKALRTIEGIAAPDGRLHPVQQAMIDHHGSQCGFCTPGFIVSMAAAHDRDRKDYDDLLAGNLCRCTGYAPILRAAEAAAGEPPADWLQADAAFTLAQLSSGVRGQTAPAFLPETSDALADWYLAHPEATLIAGGTDVSLWVTKALRDLPEVAFLSHCKDLAQIRETPDGYGIGAGVTIAALRAFAEGPHPALAGLLRRFASEQVRQVATIGGNIANGSPIGDGPPALIAMGASLTLRRGQERRRMPLEDFFLEYRKQDRRPGEFVESVTLPKSAPGLRCYKLSKRFDQDISAVCGCLNLTLKGSKIETARIAFGGMAGVPKRAAAFEAALIGQDFREDTIAAALPLLAQDFTPLSDMRASAAYRMNAAQAMALRYVRELSGEAVAVLEVMP | soluble
MDYREVDSTSEFVCRLEHGGDWRAQIEAFADEQGIDAGFFYGLGAVQDAELMFYDQDRTEYDSLTFDEPLEVAACMGNISHFDGERFAHTHAVLSRPDGEAVAGHLNAGTVWAGELYVRGFDTELQREHDEPTDLDLWNILEHHHHHH | not soluble
GMGRILREGAGWRLGWDETAHRYPGLVGTTDWAVELTAAEMADFCRLVQQLAETIAAIAPELMPEERLQIEAESALLWLEAEGFADAYELRLILASDRRVEACWPAAAVPALVAATHTLKGF | soluble
MKTGVTGPYTFGVGLITYLCSKEIYVMEHEYYSGLSLGIMAIIAVKKLGPVIAKWADGEIDKIESEWKEGREAELKVLSDAIEAEKKEQWRADGALLLMEAKKENIALQLEAAFRERAMNVYSEVNRPLDYQVECRHVERRLSQKHMVNWITTNVLASISPQQEKETLNKCIADLSALALRVKSALEHHHHHH | not soluble
MATPTFDTIEAQASYGIGLQVGQQLSESGLEGLLPEALVAGIADALEGKHPAVPVDVVHRALREIHERADAVRRERFKAMAAEGVKYLEENREKDGVNSTESGLQFRVLTQGEGAIPARTDRVRVHYTGKLIDGTVFDSSVARGEPAEFPVNGVIAGWIEALTLMPVGSKWELTIPQELAYGERGAGASIPPFSTLVFEVELLEIL | not soluble
MGSDKIHHHHHHMEMNDTRRRLIELIAEHHASHPGKKLGIEELSRRAGISRQSFNRYYKDLTDYAAGRKLIGDLVDDTTNAQTKQLINQQQEVMRDLQEQVEHSEIENAKKLKKAMDSYVTSLMVNDLTAHAANSLRITLEKQTVHNLQLKQELTNMEVSLAKAQANAATLAISPTPREGKGEKVKLDVDLSKAVAAFSATKSEDDFEDKKEIALKSLVQSICKLALESKCSIVLFAERYVSRFSSFYDNFSCPDDGLHIIARLPVFYRSELRTFIDKLPPTQNISLYIPYLESASEKKAQRSFYFNSIPKCELDSADEADVIPMTLGLDRIIQFRVKQGD | not soluble
MPRGLILATPQLPPDGTPFSARYDDVYHSTEGGLAQAHHVFLGGNGLPGGWQGKRSFTIVETGFGQGLNFLATWAAWRDDPQRCGRLDFVSVEKHPFDRAGLALVHAQEGALASLAEALRQAWPVPVPGVHRLVFDAGRVTLTLMLGDAETLLPQLSCAADAFYLDGFSPAKNPDLWQPGVFKQLARIARGGATLATYTAAGAVRHGLREAGFEVRKAPGFGRKRDMTVAAFPTHWRTRRGPAEAPVWPERHAIVLGAGLAGCSVAERLAARGWRITLIDEHEAPAGGASAHRAAAMHPHVSIDDSVLSRLSRAGNLLARRHWEALDRAGFATGFHPTGVLQLAEHADDAAEQQRIVQALGFPADFIAWLDAARAADRVGAGVPQGGWWFAQAGWVAPPDICRAALAAAGEAVELRWRTRIESLLRHDAGWRACDAQGNVIAHAPVVVLANSLDAVRLAPLASAALKPVRGQLTDVPVAALEDGVPWPRAVVCGDGYLLPRERGAPTVRVGSSFQPGETDPDARTADHAANLRRLAGLQPAHAAALARVDPARLLGYVGVRCVSANRLPLIGAVADEAAIMAPGFRLRGPHAALPRVPGLYAALAYGSRGLTWSVLGAELLAAQIDGGPLPLESELAAALDPGRFLMRALRHGKHAA | soluble
GAMDPEFMSTPLPAIVPAARKATAAVIFLHGLGDTGHGWAEAFAGIRSSHIKYICPHAPVRPVTLNMNVAMPSWFDIIGLSPDSQEDESGIKQAAENIKALIDQEVKNGIPSNRIILGGFSQGGALSLYTALTTQQKLAGVTALSCWLPLRASFPQGPIGGANRDISILQCHGDCDPLVPLMFGSLTVEKLKTLVNPANVTFKTYEGMMHSSCQQEMMDVKQFIDKLLPPID | soluble
MSIRIIPQDELGSSEKRTADMIPPLLFPRLKNLYNRRAERLRELAENNPLGDYLRFAALIAHAQKVVLYDHPLEMDLTARIKEASAQGKPPLDIHVLPRDKHWQKLLMALIAELKPEMSGPALAVIENLEKASTQELEDMASALFASDFSSVSSDKAPFIWAALSLYWAQMANLIPGKARAEYGEQRQYCPVCGSMPVSSMVQIGTTQGLRYLHCNLCETEWHVVRVKCSNCEQSGKLHYWSLDDEQAAIKAESCDDCGTYLKILYQEKEPKVEAVADDLASLVLDARMEQEGYARSSINPFLFPGEGE | not soluble
MHQQIIKFWFEELTPQNWFENNPELDKHIASRFASVLEQAARCELFNWRDSAQGRLAEIIVLDQFSRNVYRNTPKAFAQDPLALALAQEAIRLGHDQELAPEQLSFLYMPFMHSESRLIHVEAEKLFRASGLENNYDFELKHKAIIDQFGRYPHRNAILGRESTPEELAFLQQPGS | soluble
MAHHHHHHMPSWCLIESDPAVFTELIQRFGAQGVAVEEIVQLEQEYLRVHTNVYGLILLFKWKARKEGAATDGVVVPDAPVFFVQQTVNNACATLSIVNILLNHKESIELGEVLGNFLSFTQDMNPYLRGTQVGECDALREAHNSFAPVELFSLDHSVPDAGDAYHFVSFVYKNSAIWELDGLQEGPILASDASDENYRDKLMEVVRKRIRDHSAEDTTGAGQGISFSLMAVVDDPLVLLERRIYEATLQEAPTHYLEEQLNQLTKQRAREKLENQRRRHNYVPMIVELLKALAEKGQLKGILDDALAKKSGQGAKQ | soluble
MGLKVLLYDPDGEIAHFLEDIFEVTGHTLYPAGSEEEVFEYLKNEPEFFFLPFSLKEAWVNSLKERATIPIFFLFSEEEEERAKGLGIPEVNLVRVPFNPLELFERLGLLHKMKPKDFQEIGLFNTLVKSHLEEKGVKVKIKGSGGECLVNTYPVSLSCRLEELKELLKKRLRTGRR | not soluble
MKLAYWMYAGPAHIGTLRISSSFRNVHAIMHAPLGDDYFNVMRSMLERERNFTPVTTSVVDRNVLARGSQEKVIDNILRKDTEERPDLIVLTPTCTSSILQEDLQNFVERAKESAQCDVLLADVNHYRVNELQAADRTLEQIVRFYLDRAQRQGTLPSQRTEQPSVNILGMTTLGFHNRHDTTELQRLMADLGITVNAVIPAGASVEELQHLPRAWFNLVPYREVGLLTAQYLQDTFDQPMVAIAPMGITATADCIRQIQQVLNQQGAAVDFEPFIDRQTRFASEAAWFSHSIDCQNLTGKRAVVFGDNTHAAAFTKILSREMGIHVVLAGTYCKHDADWFEAEVAGYCDRVLISDDHNAIADAIAELEPAAIFGTQMERHVGKRLNIPCGVIAAPVHIQNFPVGYRPFVGYEGANQIVDLVYNSFTLGMEDHLLEIFGGHDTKEVLTKTVSAGSDLDWKPDGLTELNRIPGFVRGKVKRNTEKYAREQGLTAITAEVLYAAKEALGALEHHHHHH | not soluble
GPAIAENLYFQSPNPRPGKPSAPSLALGPSPGASPSWRAAPKASDLLGARGPGGTFQGRDLRGGAHASSSSLNPMPPSQLQLPTLPLVMVAPSGARLGPLPHLQALLQDRPHFMHQLSTVDAHARTPVLQVHPLESPAMISLTPPTTATGVFSLKARPGLPPGINVASLEWVSREPALLCTFPNPSAPRKDSTLSAVPQSSYPLLANGVCKWPGCEKVFEEPEDFLKHCQADHLLDEKGRAQCLLQREMVQSLEQQLVLEKEKLSAMQAHLAGKMALTKASSVASSDKGSCCIVAAGSQGPVVPAWSGPREAPDSLFAVRRHLWGSHGNSTFPEFLHNMDYFKFHNMRPPFTYATLIRWAILEAPEKQRTLNEIYHWFTRMFAFFRNHPATWKNAIRHNLSLHKCFVRVESEKGAVWTVDELEFRKKRSQRPSRCSNPTPGP | soluble
MSHLNYNHLYYFWMVCKQGSVTKAADALFLTPQTVTGQIKALEDRLDGKLTKRNGRSIEPTELGQLVFKYADRMFGLSYEMLDIVNYSQRSNLLFDVGVADALSKRLVSKILLTSVPGDNRIHLRCFESTHEMLLEQLAQHKLDMILSDCPVDSSQSPGLFSKKLGESRMSFFSFGDVDFAPFPAVLQSKKLLVPGSRTAMGRKVRQWFDRQGLQPHILGEFDDSALMKAFAIYHSDAVFMAPSFYVSEVDAESSLKLIGHVDEIKEEYYVIFAERMIQHPAVKNVCDADFTNLFL | not soluble
GSAAPPAKEIPEVLVDPRSRRRYVRGRFLGKGGFAKCFEISDADTKEVFAGKIVPKSLLLKPHQREKMSMEISIHRSLAHQHVVGFHGFFEDNDFVFVVLELCRRRSLLELHKRRKALTEPEARYYLRQIVLGCQYLHRNRVIHRDLKLGNLFLNEDLEVKIGDFGLATKVEYDGERKKTLCGTPNYIAPEVLSKKGHSFEVDVWSIGCIMYTLLVGKPPFETSCLKETYLRIKKNEYSIPKHINPVAASLIQKMLQTDPTARPTINELLNDEFFTSGYIPARLPITCLTIPPRFSIAPSSLDPSNRKPLTVLNK | soluble
MKLSTAFLTFSAVFLYGSAQQLLYLNSFKGMRVNNDMYEWCNIYISAQSDDTSFLASVYIVTAKNSKSLLNIMQDNLQNTGEIQGYPVDPPAYLTTSLSDNEMKQLNGVIYLSSAGQRVDSTFHVYDIYQARKMNIIANGYSTFLFLNSNMQTKPSRSSIISDWNQIKGSSGLLYAGFPLDSKVNVYPIFSNPITIQNSEVLFPNVETFSLSLAAFYITTNNGFSFKIKPGYYNINGTNTTSVYSTTGFYMKPAGEDDSTIVVNIENDIRCSGTSGASVVGHFPTGGNVTVGFYNGMAKYEQSAPPEDYPSYNPWTIPFIGQHFKVSSTNGTAGQYYVQYFVNQRPPRQTTPPETTTKSAGAVKLFTSVVTLLMYWL | not soluble
